The numbers were not newly measured in patent publication US11097005B2, “Use of cadherin-11 antagonists to treat metabolic disorders and/or increase insulin sensitivity” (The Brigham and Women's Hospital, Inc., priority 2014, dated 2021), which cites them from elsewhere.

For the data set the following is noted: ob/ob mice; IL-33 administration.

B1: IL-33: cytokine, ST2 ligand; administration to ob/ob mice cited from literature (protein, UniProt Q8BVZ5 1-266, looked up)
Interleukin-33: MRPRMKYSNSKISPAKFSSTAGEALVPPCKIRRSQQKTKEFCHVYCMRLRSGLTIRKETSYFRKEPTKRYSLKSGTKHEENFSAYPRDSRKRSLLGSIQAFAASVDTLSIQGTSLLTQSPASLSTYNDQSVSFVLENGCYVINVDDSGKDQEQDQVLLRYYESPCPASQSGDGVDGKKLMVNMSPIKDTDIWLHANDKDYSVELQRGDVSPPEQAFFVLHKKSSDFVSFECKNLPGTYIGVKDNQLALVEEKDESCNNIMFKLSKI
As for B1, the “accumulation of M2-macrophages in adipose tissue” value was “improve” and the glucose tolerance result is recorded as “improve”.
